Test: soluble on expression in E. coli; label from the status in PepcDB or PDB records

Sequence | soluble on expression in E. coli
MSAGKTGNHLMISDSKLLASAAWDAQSLNELKAKAGEDPAANIRPVARQVEGMFVQMMLKSMRDALPKDGLFSSEHTRLYTSMYDQQIAQQMTAGKGLGLAEMMVKQMTPEQPLPEEPTPAAPMKFPLETVVRYQNQALSQLVQKAVPRNYDDSLPGNSKAFLAQLSLPAQLASQQSGVPHHLILAQAALESGWGQRQIRRENGEPSYNLFGVKASGNWKGPVTEITTTEYENGEAKKVKAKFRVYSSYLEALSDYVGLLTRNPRYAAVTTAASAEQGAQALQDAGYATDPHYARKLTNMIQQMKSISDKVSKTYSMNIDNLF | soluble
MSAIEVTNLVKKFHGQTVLHGIDLEVKPGEVVAIIGPSGSGKTTLLRCINLLEQPEAGTIKVGDIIIDTARPFSQQKGLIRQLRQHVGFVFQSFNLFPHRTVLENIIEGPVIVKGEPKAEATALARELLAKVGLAGKESRYPRRLSGGQQQRVAIARALAMRPEVILFDEPTSALDPELVGEVLNTIRQLAQEKRTMVIVTHEMSFARDVADRAIFMDQGQIVEQGPAKTLFADPQHPRTRQFLEKFLVK | not soluble
MSAISPFVAIRRDLHQIPELGFQELKTQQYLLRYIQSLPQERLQVRTWKTGIFVKVNGTSPRKTIGYRADMDGLPIREETGLPYRSKHEGHMHACGHDVHMSIALGVLTHFAHHPLEDDLLFVFQPAEEGPGGAKPMLESDIMREWKPDMIVALHIAPEYPVGTIATKEGLLFANTSELFIDLKGRGGHAAFPHLANDMVVAACALVTQLQSIVARNVDPLDSAVITIGKIAGGTVQNVIAEHARLEGTIRTLSTAAMQKVKRRIEAIVHGIEVAYECETSIDYGAMYHEVYNDPDLTAEFMKFAKAHGGVNVIRCKEAMTGEDFGYMLAEIPGFMFWLGVDSPYGLHHAKLAPNEEAIDRAIAFLIDYFSWKGNAE | not soluble
MSAKFQQETLKSRFAQAKVLVVGDVMLDRYWFGDVSRISPEAPVPVAKIGRIDQRAGGAANVARNIASLGGRAGLLSVTGNDEAADALDALMVQDGVASYLMRDKQIATTVKLRVVARNQQLIRLDFEEHPNCEVLEQIKQKYREILPEYDAIIFSDYGKGGLSHISDMIDWAKHAGKTVLIDPKGDDYEKYVGATLITPNRAELKEVVGSWKNESELTEKAQNLRRHLDLTAVLLTRSEEGMTLFSEGEPIYQPTRAQEVYDVSGAGDTVIAGMGLGLAAGCTMPEAMYLANTAAGVVVAKLGTAVCSFAELIKALSGQSTM | not soluble
MSALEWYAHKSLGDGIFWIQERFYESGNRANIWLVRGSEQDVVIDTGLGLRSLPEYLYSSGLLQDREAKEDAARRPLLAVATHVHFDHSGGLYQFDRVAVHHAEAEALARGDNFETVTWLSDSEVVRAPSPGWRARQFRVQAVQPTLILQDGDVINLGDRQLTVMHMPGHSRGSICLHDKDRKILFSGDVVYDGSLIDWLPYSRISDYVGTCERLIELVDRGLVEKVLPGHFNTFGAERLFRLASNYISKAGICHKVSTFAMRSLASLALRVTNSRTSP | not soluble
MSALKWTNIGATSGAKSCQRWLFYAYDRIRRTVVPHVFGERTLATLERLLSLLSAFEVVVWMTDGWPLYESRLKGKLHVISKRYTQRIERHNLNLRQHLARLGRKLLSFSKSVELHDKVIGHYLNIKHYQLEHHHHHH | not soluble
MSALTLKGTSYKMCTDKMSFVKNPTDTGHGTVVMQVKVPKGAPCKIPVIVADDLTAAINKGILVTVNPIASTNDDEVLIEVNPPFGDSYIIVGTGDSRLTYQWHKEGSSIGK | soluble
MSAQDFLVELGTEELPPKALASLGDAFLAGIEKGLQAAGLNYTGKQVYAAPRRLAVLIRQLDVQQPDRSINIDGPPLQAAFNAEGEPTQAALGFAKKCGVELAEIDQSGPKLRFSQHIPGKATVGLLPTIVEDSLNDLPIPKRMRWAASREEFVRPTQWLVMLLGDQVVDCTILSQKAGRESRGHRFHHPENVLITTPANYVEDLRKAYVLADFAERRELISKRTAELAMQQEGTAIVPPALLDEVTALVEWPVPLVCSFEERFLEVPQEALITTMQDNQKYFCLLDSEGKLLPRFITVANVESRDPKQIVQGNEKVVRPRLTDAEFFFKQDKKQPLETFNERLKNVVFQAQLGTVYDKAERVSRLAAFIAPLIGGDAQRAGRAGLLSKCDLATEMVGEFPEMQGVAGYYYALNDGEPEDVALALNEQYMPRGAGAELPQTLTGAAVAIADKLDTLVGIFGIGMLPTGSKDPYALRRAALGVLRILIEKQLDLDLTGAVEFAVKQFGAKIKAPGLAEQVLEFIFDRLRARYEDEGIDVATYLSVRALQ | not soluble
MSAQVSLELHHRISQFLFHEASLLDDWKFRDWLAQLDEEIRYTMRTTVNAQTRDRRKGVQPPTTWIFNDTKDQLERRIARLETGMAWAEEPPSRTRHLISNCQISETDIPNVFAVRVNYLLYRAQKERDETFYVGTRFDKVRRLEDDNWRLLERDIVLDQAVITSHNLSVLF | soluble
MSASPLQITEKSPEMSQTPPKDENNELEFGIPTKRSRSGRPKKICAFSSFKCYEERDIEFFIHQVSDNQIIWDRRNSLNFDGNLVHATFDKIEICCQFLARKNGENASRLWTELASEYKREKARIEQLPSGIYSEEFEIRFPFMQQMWFLEIEASELKEADSNSLEETIVNFARQKSINDAPSPSSSLSAPIEHLNSSINRLIAVIDKKSEDTTKRQIPAKYSDIVEHLIGFLDKTPRERQMEVKCKIYNFLDTIN | not soluble
MSAVALPRVSGGHDEHGHLEEFRTDPIGLMQRVRDELGDVGTFQLAGKQVVLLSGSHANEFFFRAGDDDLDQAKAYPFMTPIFGEAVVFDASPERRKEMLHNAALRGEQMKGHAATIEDQVRRMIADWGEAGEIDLLDFFAELTIYTSSACLIGKKFRDQLDGRFAKLYHELERGTDPLAYVDPYLPIESFRRRDEARNGLVALVADIMNGRIANPPTDKSDRDMLDVLIAVKAETGTPRFSADEITGMFISMMFAGHHTSSGTASWTLIELMRHRDAYAAVIDELDELYGDGRSVSFHALRQIPQLENVLKETLRLHPPLIILMRVAKGEFEVQGHRIHEGDLVAASPAISNRIPEDFPDPHDFVPARYEQPRQEDLLNRWTWIPFGAGRHRCVGAAFAIMQIKAIFSVLLREYEFEMAQPPESYRNDHSKMVVQLAQPAAVRYRRRTGVHHHH | soluble
MSCEIVVYPAQDSTTTNIQDISIKNYFKKYGEISHFEAFNDPNSALPLHVYLIKYASSDGKINDAAKAAFSAVRKHESSGCFIMGFKFEVILNKHSILNNIISKFVEINVKKLQKLQENLKKAKEKEAENHHHHHH | soluble
MSCKPNILVLFYGYGSIVELAKEIGKGAEEAGAEVKIRRVRETLPPEFQSRIPFDKVKDIPEVTLDDMRWADGFAIGSPTRYGNMAGGLKTFLDTTAILWKDNVLYGKPVTFFTEASTVHGGHETTILTMSTYAYHFGMIIVPIGYGIPELFQTTTGGGPYGATHLGSKEELDEMERKIARFQGKRITEVAKAIKCCNK | soluble
MSCYYYCKYCKEYKNKHHDCCKNTSKCHDNKDNLVRASAFRARNTVNQNVPANTFVKVLFQNEQFDLANEYNPATSIFMPKTKGVYSIIGTIGFFPNDPTLNYRARVEIRVNGNAAIAIDNDFFGPISFGNVVSVSTIVQLNAGDEVEIYAQSSIDGVLSPLEDGAHFEAARFPSPIKLEHHHHHH | not soluble
MSDAIVVGAGPNGLAAAVALARRGLKVTVLEAADEIGGGTRTSELTVPGLLHDHCSAVHPLGVGSPFLRTLGLERYGVTWAWPDVDLAHPLDGGRAGVLVRSMERTVRGLGPDGPAWERLFAPLAEDFDALTEDLLRPVPHLPAHPVELARFGLRALQPATTVARRWRGAEARALFAGAAAHLMHPLTGPTSSAVGLMLVGAAHRFGWPVARGGSRTITDALAALLAQLGGTIETGVRVDSLDQLAAARIVMLDTAPGAAARICGDRLPGRVRSAYEGWRHGPAAFKVDLAVQDGIPWTHEACRRAGTVHLGGTLEEVVRTEAQTAGGRMPERPFVLVGQQYLADPSRSRGDVHPIWAYAHVPHGYPGDATEAVLRQIERFAPGFRDRIVGIAARSTAELARSNTNFVGGDIVGGANTARQVALRPRVALDPYSTGIPGVYLCSAATPPGAGVHGMCGANAARSALRYLDRLEHHHHHH | not soluble
MSDASLKTYQKQWAYQKYWVMAHSQQHYNALRELFKGNQWSEEKVLTFHCLIEEAQAIPPTVKSLRTAYQHVWGYFKKVASQEEKDHFKDLDAQLETKSEEMLCFLQEMTAHYQPSYLLSCRLITKGP | not soluble
MSDFGNPLKKFKLVFLGEQSVGKTSLITRFMYDSFDNTYQATIGIDFLSKTMYLEDRTVRLQLWDTAGQERFRSLIPSYIRDSTVAVVVYDITNSNSFHQTSKWIDDVRTERGSDVIIMLVGNKTDLSDKRQVTTDEGERKAKELNVMFIETSAKAGYNVKQLFRRIAGALPGIIKDDPVEPPNVVTMDPIRQRQIVTDEGSCWC | not soluble
MSDGSVERGTKRAEDSLATHQLTVQYKRYYIDVNENTRGRYIKIAELGTNYKSRIILSIVAAKAIVSEISKMLALIDEPSTGEHAPKESSLIKSETLNVDGRKFYVDLKENVRGRFLRIAQMPMNPRQTRQQIAIPSDGIAEIHKVLTEYLAKFGEGHEQENTNTPKITAENKSFLFHSGKNDRGEFVRISEIKLNSGYRNAITVPMSALVDFRKELDNIIANQGK | not soluble
MSDKIIHLTDDSFDTDVLKADGAILVDFWAEWCGPIEESDDRRYDLVGPCKMIAPILDEIADEYQGKLTVAKLNIDQNPGTAPKYGIRGIPTLLLFKNGEVAATKVGALSKGQLKEFLDANLA | soluble
MSDLMQKENIVVMLTKKGFLKRLSQNEYKLQGTGGKGLSSFDLNDGDEIVIALCVNTHDYLFMISNEGKLYLINAYEIKDSSRASKGQNISELINLGDQEEILTIKNSKDLTDDAYLLLTTASGKIARFESTDFKAVKSRGVIVIKLNDKDFVTSAEIVFKDEKVICLSKKGSAFIFNSRDVRLTNRGTQGVCGMKLKEGDLFVKVLSVKENPYLLIVSENGYGKRLNMSKISELKRGATGYTSYKKSDKKAGSVVDAIAVSEDDEILLVSKRSKALRTVAGKVSEQGKDARGIQVLFLDNDSLVSVSKFIK | soluble
MSDLNNAIQGILDDHVARGVVGVSLALCLPGEETSLYQSGYADKFNKMPMTGDHLFRIASCTKSFIATGLHLLVQDGTVDLDEPITRWFPDLPKAAQMPVRILLNHRSGLPDFETSMPMISDKSWTAQEIVDFSFRHGVQKEPWHGMEYSNTGYVLAGMIIAHETGKPYSDHLRSRIFAPLGMKDTWVGTHETFPIEREARGYMHAAADDENPQWDVSGAGDPVDGVWDSTEWFPLSGANAAGDMVSTPRDIVKFLNALFDGRILDQKRLWEMKDNIKPAFFPGSNTVANGHGLLLMRYGSSELKGHLGQIPGHTSIMGRDEETGAALMLIQNSGAGDFESFYLKGVNEPVDRVLEAIKNSRS | soluble
MSDLVSYHLDDGVATLTLNNGKVNAISPDVIIAFNAALDQAEKDRAIVIVTGQPGILSGGYDLKVMTSSAEAAINLVAQGSTLARRMLSHPFPIIVACPGHAVAKGAFLLLSADYRIGVAGPFSIGLNEVQIGMTMHHAGIELARDRLRKSAFNRSVINAEMFDPEGAMAAGFLDKVVSVEELQGAALAVAAQLKKINMNAHKKTKLKVRKGLLDTLDAAIEQDRQHML | soluble
MSDNLVLPTYDDVASASERIKKFANKTPVLTSSTVNKEFVAEVFFKCENFQKMGAFKFRGALNALSQLNEAQRKAGVLTFSSGNHAQAIALSAKILGIPAKIIMPLDAPEAKVAATKGYGGQVIMYDRYKDDREKMAKEISEREGLTIIPPYDHPHVLAGQGTAAKELFEEVGPLDALFVCLGGGGLLSGSALAARHFAPNCEVYGVEPEAGNDGQQSFRKGSIVHIDTPKTIADGAQTQHLGNYTFSIIKEKVDDILTVSDEELIDCLKFYAARMKIVVEPTGCLSFAAARAMKEKLKNKRIGIIISGGNVDIERYAHFLSQ | soluble
